Tests used:
GST-PIF3 [1] = biological target: T1, GST-PIF3 (Arabidopsis, UniProt O80536 1-524); experiment: pull-down; GST pull-down: immobilized GST-PIF3 pulls down HA-tagged PHYB in the Pr form; anti-HA immunoblot; procedure as ref. 33; conditions: one partner purified
T1 construct: the construct is not described here
T1 sequence (looked up): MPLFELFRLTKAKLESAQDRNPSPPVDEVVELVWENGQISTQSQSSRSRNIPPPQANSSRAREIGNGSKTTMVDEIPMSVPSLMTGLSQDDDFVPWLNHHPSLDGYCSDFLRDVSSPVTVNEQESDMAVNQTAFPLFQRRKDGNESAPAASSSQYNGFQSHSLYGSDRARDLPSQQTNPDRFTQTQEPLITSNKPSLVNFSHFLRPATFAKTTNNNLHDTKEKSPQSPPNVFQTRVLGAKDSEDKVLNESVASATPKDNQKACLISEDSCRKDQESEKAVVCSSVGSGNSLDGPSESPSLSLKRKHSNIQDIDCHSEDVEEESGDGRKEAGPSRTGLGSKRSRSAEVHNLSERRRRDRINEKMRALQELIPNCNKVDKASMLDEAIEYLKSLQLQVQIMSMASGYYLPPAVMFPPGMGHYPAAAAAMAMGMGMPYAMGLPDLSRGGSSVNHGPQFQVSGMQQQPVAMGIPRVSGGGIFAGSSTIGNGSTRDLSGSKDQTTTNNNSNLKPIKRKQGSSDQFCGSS

[2] = biological target: the molecule itself; experiment: co-IP; in vitro co-immunoprecipitation: HA-tagged bait and Myc-tagged prey co-expressed in TNT T7 reticulocyte lysate, anti-HA Affinity Matrix, E buffer (50 mM Tris-HCl pH 7.5, 100 mM NaCl, 1 mM EDTA, 1 mM EGTA, 1% DMSO, 2 mM DTT, 0.1% Nonidet P-40), 4 °C 2 h; anti-Myc immunoblot
GST-PIF3 [3] = biological target: T1, GST-PIF3; experiment: pull-down; GST pull-down: immobilized GST-PIF3 pulls down HA-tagged PHYB as apoprotein; anti-HA immunoblot; procedure as ref. 33; conditions: one partner purified

B1: PHYB18-HA (PHYB D1040V), Pr or Pfr form (natural protein, Arabidopsis, UniProt P14713 1-1172, looked up)
chain: MVSGVGGSGGGRGGGRGGEEEPSSSHTPNNRRGGEQAQSSGTKSLRPRSNTESMSKAIQQYTVDARLHAVFEQSGESGKSFDYSQSLKTTTYGSSVPEQQITAYLSRIQRGGYIQPFGCMIAVDESSFRIIGYSENAREMLGIMPQSVPTLEKPEILAMGTDVRSLFTSSSSILLERAFVAREITLLNPVWIHSKNTGKPFYAILHRIDVGVVIDLEPARTEDPALSIAGAVQSQKLAVRAISQLQALPGGDIKLLCDTVVESVRDLTGYDRVMVYKFHEDEHGEVVAESKRDDLEPYIGLHYPATDIPQASRFLFKQNRVRMIVDCNATPVLVVQDDRLTQSMCLVGSTLRAPHGCHSQYMANMGSIASLAMAVIINGNEDDGSNVASGRSSMRLWGLVVCHHTSSRCIPFPLRYACEFLMQAFGLQLNMELQLALQMSEKRVLRTQTLLCDMLLRDSPAGIVTQSPSIMDLVKCDGAAFLYHGKYYPLGVAPSEVQIKDVVEWLLANHADSTGLSTDSLGDAGYPGAAALGDAVCGMAVAYITKRDFLFWFRSHTAKEIKWGGAKHHPEDKDDGQRMHPRSSFQAFLEVVKSRSQPWETAEMDAIHSLQLILRDSFKESEAAMNSKVVDGVVQPCRDMAGEQGIDELGAVAREMVRLIETATVPIFAVDAGGCINGWNAKIAELTGLSVEEAMGKSLVSDLIYKENEATVNKLLSRALRGDEEKNVEVKLKTFSPELQGKAVFVVVNACSSKDYLNNIVGVCFVGQDVTSQKIVMDKFINIQGDYKAIVHSPNPLIPPIFAADENTCCLEWNMAMEKLTGWSRSEVIGKMIVGEVFGSCCMLKGPDALTKFMIVLHNAIGGQDTDKFPFPFFDRNGKFVQALLTANKRVSLEGKVIGAFCFLQIPSPELQQALAVQRRQDTECFTKAKELAYICQVIKNPLSGMRFANSLLEATDLNEDQKQLLETSVSCEKQISRIVGDMDLESIEDGSFVLKREEFFLGSVINAIVSQAMFLLRDRGLQLIRDIPEEIKSIEVFGVQIRIQQLLAEFLLSIIRYAPSQEWVEIHLSQLSKQMADGFAAIRTEFRMACPGEGLPPELVRDMFHSSRWTSPEGLGLSVCRKILKLMNGEVQYIRESERSYFLIILELPVPRKRPLSTASGSGDMMLMMPY
modifications: Pr or Pfr form (chromophore used not named for this experiment)
notes: Same chain as m21, with chromophore; not shown: HA, C-terminal, kept
For B1, the “interaction relative to that of PHYB-HA” value (GST-PIF3 [1]) was ~0.33 fraction of wild type.

B2: full-length PHYB18 (PHYB D1040V), N-terminal HA- or Myc-tagged (natural protein, Arabidopsis, UniProt P14713 1-1172, looked up)
chain: MVSGVGGSGGGRGGGRGGEEEPSSSHTPNNRRGGEQAQSSGTKSLRPRSNTESMSKAIQQYTVDARLHAVFEQSGESGKSFDYSQSLKTTTYGSSVPEQQITAYLSRIQRGGYIQPFGCMIAVDESSFRIIGYSENAREMLGIMPQSVPTLEKPEILAMGTDVRSLFTSSSSILLERAFVAREITLLNPVWIHSKNTGKPFYAILHRIDVGVVIDLEPARTEDPALSIAGAVQSQKLAVRAISQLQALPGGDIKLLCDTVVESVRDLTGYDRVMVYKFHEDEHGEVVAESKRDDLEPYIGLHYPATDIPQASRFLFKQNRVRMIVDCNATPVLVVQDDRLTQSMCLVGSTLRAPHGCHSQYMANMGSIASLAMAVIINGNEDDGSNVASGRSSMRLWGLVVCHHTSSRCIPFPLRYACEFLMQAFGLQLNMELQLALQMSEKRVLRTQTLLCDMLLRDSPAGIVTQSPSIMDLVKCDGAAFLYHGKYYPLGVAPSEVQIKDVVEWLLANHADSTGLSTDSLGDAGYPGAAALGDAVCGMAVAYITKRDFLFWFRSHTAKEIKWGGAKHHPEDKDDGQRMHPRSSFQAFLEVVKSRSQPWETAEMDAIHSLQLILRDSFKESEAAMNSKVVDGVVQPCRDMAGEQGIDELGAVAREMVRLIETATVPIFAVDAGGCINGWNAKIAELTGLSVEEAMGKSLVSDLIYKENEATVNKLLSRALRGDEEKNVEVKLKTFSPELQGKAVFVVVNACSSKDYLNNIVGVCFVGQDVTSQKIVMDKFINIQGDYKAIVHSPNPLIPPIFAADENTCCLEWNMAMEKLTGWSRSEVIGKMIVGEVFGSCCMLKGPDALTKFMIVLHNAIGGQDTDKFPFPFFDRNGKFVQALLTANKRVSLEGKVIGAFCFLQIPSPELQQALAVQRRQDTECFTKAKELAYICQVIKNPLSGMRFANSLLEATDLNEDQKQLLETSVSCEKQISRIVGDMDLESIEDGSFVLKREEFFLGSVINAIVSQAMFLLRDRGLQLIRDIPEEIKSIEVFGVQIRIQQLLAEFLLSIIRYAPSQEWVEIHLSQLSKQMADGFAAIRTEFRMACPGEGLPPELVRDMFHSSRWTSPEGLGLSVCRKILKLMNGEVQYIRESERSYFLIILELPVPRKRPLSTASGSGDMMLMMPY
notes: Two differently tagged copies: the bait copy has the HA tag, the prey copy the Myc tag (each copy has one tag only); also called HA-PHYB18; Myc-PHYB18; source: in vitro translated (TNT T7 Coupled Reticulocyte Lysate System), co-expressed; not shown: HA, N-terminal, kept; Myc, N-terminal, kept
With B2 the “fold reduction of the interaction against wild-type PHYB” value [2] was 5 fold.

B3: PHYB18-HA (PHYB D1040V), apoprotein (natural protein, Arabidopsis, UniProt P14713 1-1172, looked up)
chain: MVSGVGGSGGGRGGGRGGEEEPSSSHTPNNRRGGEQAQSSGTKSLRPRSNTESMSKAIQQYTVDARLHAVFEQSGESGKSFDYSQSLKTTTYGSSVPEQQITAYLSRIQRGGYIQPFGCMIAVDESSFRIIGYSENAREMLGIMPQSVPTLEKPEILAMGTDVRSLFTSSSSILLERAFVAREITLLNPVWIHSKNTGKPFYAILHRIDVGVVIDLEPARTEDPALSIAGAVQSQKLAVRAISQLQALPGGDIKLLCDTVVESVRDLTGYDRVMVYKFHEDEHGEVVAESKRDDLEPYIGLHYPATDIPQASRFLFKQNRVRMIVDCNATPVLVVQDDRLTQSMCLVGSTLRAPHGCHSQYMANMGSIASLAMAVIINGNEDDGSNVASGRSSMRLWGLVVCHHTSSRCIPFPLRYACEFLMQAFGLQLNMELQLALQMSEKRVLRTQTLLCDMLLRDSPAGIVTQSPSIMDLVKCDGAAFLYHGKYYPLGVAPSEVQIKDVVEWLLANHADSTGLSTDSLGDAGYPGAAALGDAVCGMAVAYITKRDFLFWFRSHTAKEIKWGGAKHHPEDKDDGQRMHPRSSFQAFLEVVKSRSQPWETAEMDAIHSLQLILRDSFKESEAAMNSKVVDGVVQPCRDMAGEQGIDELGAVAREMVRLIETATVPIFAVDAGGCINGWNAKIAELTGLSVEEAMGKSLVSDLIYKENEATVNKLLSRALRGDEEKNVEVKLKTFSPELQGKAVFVVVNACSSKDYLNNIVGVCFVGQDVTSQKIVMDKFINIQGDYKAIVHSPNPLIPPIFAADENTCCLEWNMAMEKLTGWSRSEVIGKMIVGEVFGSCCMLKGPDALTKFMIVLHNAIGGQDTDKFPFPFFDRNGKFVQALLTANKRVSLEGKVIGAFCFLQIPSPELQQALAVQRRQDTECFTKAKELAYICQVIKNPLSGMRFANSLLEATDLNEDQKQLLETSVSCEKQISRIVGDMDLESIEDGSFVLKREEFFLGSVINAIVSQAMFLLRDRGLQLIRDIPEEIKSIEVFGVQIRIQQLLAEFLLSIIRYAPSQEWVEIHLSQLSKQMADGFAAIRTEFRMACPGEGLPPELVRDMFHSSRWTSPEGLGLSVCRKILKLMNGEVQYIRESERSYFLIILELPVPRKRPLSTASGSGDMMLMMPY
notes: not shown: HA, C-terminal, kept
For B3, the “interaction relative to that of PHYB-HA” value (GST-PIF3 [3]) was ~0.33 fraction of wild type.
